From the DeepSol protein solubility set

Assay: soluble on expression in E. coli; label from the status in PepcDB or PDB records
With “MWLLQLMQQQHSIDMMKKQGLKLEAQDLYNPNGVSLKDAVGIFGGGCTGEIISPEGLILTNHHCGYSSIQQHSSVEHDYLTDGFWATSRDQELPTPGLKFTFIERIEDITDIVNAKIAAKEITESQSFTGAFLEGLAKELYEKSDLKDKKGIVPQALPFYAGNKFYLFYKKIYPDVRMVAAPPSSVGKFGGETDNWMWPRHTGDFSMFRIYADANGEPAEYSASNTPLKTKKHLSISIKGLKEGDYAMIMGFPGRTSRYLTVSEVKERMESTNEPRIRIRGARLAVLKEVMNASDKIRIQYANKYAGSSNYWKNSIGMNKAIIDNDVLGTKAEQEAKFAEYAKAQNNTEYANVVKKIDDLVAQTAPLNYQLTCLTEVFFGAIEFGNSMLTKTREALVDKNDSLIKVRLEGLKENFKSIHNKDYDHEVDRKVAKALLPLYAEMIPANQRPAIYKVIEQKYKGDYNKFVDDMYDKSIFANQANFDKFLKKPTVKAIDEDLALQYAQSKYDQYGNLLDQLKELDKELALLHKTYIRGLGEMKLPVPSYPDANFTIRLTYGNVKPYDPKDGVHYNYYTTTKGILEKENPEDREFVVPAKLKELIEKKDYGRYALPNGDMPVCFLSTNDITGGNSGSPVLNENGELIGCAFDGNWESLSGDINFDNNLQRCINLDIRYVLFILEKLGNCGHLINEMTIVE” the “soluble on expression in E. coli” value was “not soluble”.
With “MWLYYLQVVMDMRVYVEGYGCVLNTADTEIIKNSLKKHGFEVVNNLEEADIAIINTCVVRLETENRMIYRINELKNLGKEVVVAGCLPKALKNKVKGFLHIYPREAHKAGEILKNYVEKHYRMPYIEEDINKTLYKKLDYLKPSLITPLPICEGCIGNCSYCIVKIARGGLISYPREKIVNKAKELINKGAKCLLITAQDTACYGFDIGDNLANLLNELTQIKGEFIMRVGMMHAKNAELILDELIEVYQNEKVGKFLHLPLQSGDDEILKRMKRGYTVDEFKDIVNEFRRKIKNLCFTTDIIVGFPGETEEQFQNTLEVLRELKPDYIHGAKYSQRKGTEAAKMKQIDTKIRKRRSEILDKLRRELSYLNNKKYIGKAMKVLVLDEGKGYTDNFKVVKFEGGEVGEFRKVKITDAKTFGLKGELILLEHHHHHH” the “soluble on expression in E. coli” value was “soluble”.
With “MWQKSALTTVSISLPQQAVYSGMRYEVNISAAKCDGTGVTFGTINNCTITLSLPAGASIITRHFSADL” the “soluble on expression in E. coli” value was “not soluble”.
For “MWSFRAWRRRRLLARHPVAEELWQRVRRHLPILDGLDADEDRRLRERAVLFLADKHLTALAGVDLDDFGRLLLAAQAQLPLLHLPELNWYQGFHELVLYPDDFVSPQKHRDASGVVHEFDDERSGETSLQGPVVLAWPGVVGGGGWDAYNLVIHELAHKLDMLNGDANGLPPLHAGMRIGDWASAMQAAYDEMNALLDRDPDAQTAIDPYAAEDPAEFFAVTSEYFFTAPDLLHEAYPAVYRQLQLFYRQDPLQRLRRLQAEHPDYREAAGDTTNG”, the “soluble on expression in E. coli” value was “not soluble”.
In the case of “MWSVTDSPLDDAIQEAKSAAQKAGFDTETFAAVQSKEGRTSFAFELEGLGSASSVSELEEAIEQIEGVDAKIVYPSAMAWISASRTLDPTLIVDAFQQHGVTATLTDSSLRRRLAWTDVEEGRYRRARARRFGSRVDEESRRFEIARREGFLHKRDETTRVVETTEVLFTARSLMTKAR”, the “soluble on expression in E. coli” value is reported as “not soluble”.
With “MYCQRLRQLRKAHKLTMEQLAEKIGIAKSSYGGYEAESKKPPLDKLVILARLYDVSVDYILGLTDDPDPKVERKNLKEFLEKPDIHWDGYKLTPEILDPIRKILKLVTANNN” the “soluble on expression in E. coli” value was “not soluble”.
In the case of “MYDTIVIGAGQAGISIGYYLKQSDQKFIILDKSHEVGESWKDRYDSLVLFTSRMYSSLPGMHLEGEKHGFPSKNEIVAYLKKYVKKFEIPIQLRTEVISVLKIKNYFLIKTNREEYQTKNLVIATGPFHTPNIPSISKDLSDNINQLHSSQYKNSKQLAYGNVLVVGGGNSGAQIAVELSKERVTYLACSNKLVYFPLMIGKRSIFWWFDKLGVLHASHTSIVGKFIQKKGDPVFGHELKHAIKQKEIILKKRVIAAKQNEIIFKDSSTLEVNNIIWATGFRNPLCWINIKGVLDQEGRIIHHRGVSPVEGLYFIGLPWQHKRGSALLQGVGNDAEYIVKQMNGELEHHHHHH”, the “soluble on expression in E. coli” value is reported as “soluble”.
In the case of “MYEAGTVEWRLTMVYLEQFRFPDAEVEFDFFLRQKRTCYDTYYPFQILSKHRFEQIDFEPVTILYGGNGTGKSTVLNIIAQKLHLLREAPFNQSSFYEDYLELCSFESAAHLPKDSRIITSDDVFDYMLNIRNLNEGIDRKREMLFEEYLDTKFAKFRMKSLDDYEQLKRVNNARRKTQSQFIRSELMDNVREYSNGESAFLYFTEKVTENALFLLDEPENSLSPAKQQELVKFIEDSARFFGCQFVIATHSPFVLAIRGAKIYDLDEEPVDVKRWTELENVRAYYDFFKKHASEF”, the “soluble on expression in E. coli” value is reported as “not soluble”.
For “MYHVFFNRRPTRPRLPRALYEQLAALPLNTEVNVHTTNETHYNALFLGFEPRTNNVSLLVDRFYKDGGRSLAIDATTITAIDLPVSMRPASSADSDDEEE”, the “soluble on expression in E. coli” value was “not soluble”.
In the case of “MYIIAHRGASGYAPENTIAAFDLAVKMNADMIELDVQLTKDRQIVVIHDDRVDRTTNGSGFVKDFTLEELQKLDAGSWYGPAFQGERIPTLEAVLKRYHKKIGLLIELKGHPSQVGIEEEVGQLLGQFSFSINNIVQSFQFRSVQRFRELYPSIPTAVITRPNFGMLSRNQMKAFRSFANYVNIKHTRLNRLMIGSINKNGLNIFAWTVNNQKTAAKLQAMGVDGIVTDYPDFIIKDGKHENILEHHHHHH”, the “soluble on expression in E. coli” value is reported as “not soluble”.
In the case of “MYIPKHFESMELSRYKLSKKPPLGTLFSSKASRQGFFGWRTSSNKDDPDFGMCASHIPFVFVEFDNGEHKLIAHLARKNKHVEMLERVQKCLVVFQSVDSYISPAWFPMKKKTHKFVPTWDFAAVHVYGTPRIIRDDKDWLINMLSTLTDQEEEKRPEGENVRSKVERF”, the “soluble on expression in E. coli” value is reported as “soluble”.
For “MYKINDFEIMAPVGSRESLAAAIQAGADSIYFGIENLNMRARSANTFTIEDLREIARTCDEHGMKSYLTVNTIIYDKDIELMRTIVDAAKEAGISAVIAADVAVMSYANKIGQEVHLSTQLNISNAEALKFYAQFADVVVLARELNLEQVAEIYRQIQEEHICGPSGELIRIEMFCHGALCMAVSGKCYLSLHEMNHSANRGACMQICRRAYTVRDKDTDVELEVDNQYIMSPKDLKTIHFMNKMIDAGVRVFKIEGRARGPEYVRTVVECYKQAIRAYLDDSFTDEKIAAWDERLKTVFNRGFWDGYYLGQRLGEWTKNYGSAATERKIYVGKGIKYFSNIGVAEFLVEAAEVSVGDKLLITGPTTGAVFATLDEARVDLKPVETVKKGEHFSMKLDKIRPSDKLYKLVSTEELKKFKGL”, the “soluble on expression in E. coli” value was “not soluble”.
With “MYLRPDEVARVLEKAGFTVDVVTNKTYGYRRGENYVYVNREARMGRTALIIHPRLKDRSSSLADPASDIKTCDHYQNFPLYLGGETHEHYGIPHGFSSRIALERYLNGLFGDEKTD” the “soluble on expression in E. coli” value was “not soluble”.
In the case of “MYLVCGEALFDVFSLESAARSNELGFTAIAGGSPFNVAVGLRRLGVEAALFGGLSSDYLGARLRRVLEEEGVDCGFLVPSDAPTTLAMVGLDASGSAQYQFRGEGCADRQVRLEHLPTLDGRIRGLHVGSYTLVVTPVADTLLALVRRESGRRLVSLDPNVRLDPQPDIDLWRRRVEAFASHAHLIKASEEDLALLYPGRDPGEVARGWLNPRCRLVFVTHGGAGASVHCTHGSWSRPADTALPLRDTVGAGDTFQAATLAYLRRLDADSPAGLAALSREAIDAMLAFAIRAAAVTCSRVGPDLPFAHEL”, the “soluble on expression in E. coli” value is reported as “not soluble”.
With “MYLVTGATGQLGLRVVRRCITLGLPVRAFVRLTSQYELLKEWGAEIFIGDLQQPRDIQAAMKGVEAVICCHGSQLLSRAIQAIDYRATLDVIQAAQEQGVRYLTLISPLAVTGDRQQSPFLKAKYEVEQVLISSGLNYSIFRCPTLMSSLLPLAERFQQTGVYIVLGDPQHRLQLLSPDDLARCILIASQASQPAIFSMAHPEVFTRQEIADRLGRFFNRRPFVMTVPLSVIDGARQFLGVMSRDLDASLGTLRTLLAYESLCPASEIERAQTYFQLSFESLETFLGRYFLEHHHHHH” the “soluble on expression in E. coli” value was “not soluble”.
For “MYQSIHVNKGQGGWGTGLDLTPSEPRTKVVSITGGGIHPVALKIAELSGAEAVDGFKNSIPEEEMMCVVIDCGGTARIGVYPMKRIPTVDILPSSPSGPLAKHITEDIFVSGVKPEDIMVTSSEADPGKPFDREKFKEDYAKIKEDQQEASDLKEGYLVKFSRGIGKAMGVFYQAGRDSVDMLIKN”, the “soluble on expression in E. coli” value was “not soluble”.
For “MYRFCVALTPSTSEDEQVVRKSEKPASKPPTPEVEDCTFSEKNNDQRKIEKETESEESSNLKFPPARPSIRNATNFRRIICISESDSGKEEPVVKKEVLKTNKLRISETKPEYPPELLQLEARLQELRAGRKNKQGRINRKFVAKPCGVVSGETPQRPFLEEMYYFNPQETGTASEIFDMLFPAKDTPNFRPWLDGHFSAPDLQFKQIEKQRQTKLHSYTGTTLQEKKRKKRKKILKSIQEILWLLHFQKHDDFLESTSRLTIKNFSCHFDEHQRLKLLRNNDLSLICNYQIGSENTPIFNQRSTDCMLRPVFIDGLSFMDMLIPISSSLPIISTRSLLEILLNFILDGCQTVIYLPDYYNDTTNQKVDDSTIFQFLCNSKLIQFVDGRSRRAVERQVLLEAEKVHGVFVSSAEEFLTRNAIQCFPVINRYSKRLDEFLICTVFLVNNLPKKILAQDFVEESRVLKPEGSSSAVSSTTVLEESHQKISGAMEDSEDEPADPQTLKQEYLIKEECSEISEDSEEGAIVDVASSSGDLSENRDQKSENEEFEYSPHQLTLEQQTYLISSMAQLSIFHFQRYRQIRVFLMIIKRYVPELLPSFMQKTRMDDVAMAIQDIQNGKDLLYWPIFSKIDN”, the “soluble on expression in E. coli” value was “not soluble”.
In the case of “MYRIGELAKMAEVTPDTIRYYEKQQMMEHEVRTEGGFRLYTESDLQRLKFIRHARQLGFSLESIRELLSIRIDPEHHTCQESKGIVQERLQEVEARIAELQSMQRSLQRLNDACCGTAHSSVYCSILEALEQGASGVKSGC”, the “soluble on expression in E. coli” value is reported as “not soluble”.
For “MYSMLKRVITEKDLLRQIRLLEQLLNVPQLTAKRLAAQIQTTERTVFSDLQYIRSQLPADWSIETDSSGIRLRNQGNAQTNELWSLFLPQSISIQLLKELLFTKELVTTSFLSTSGVSYETLKRHIKKMNQALRDFHLTIQLTTMTIQLIGAESNIRIFYHRLLVPFTHNNYFFDDYSIHEEHYFQFLKQVYSSELTVETEEIFGACWFFINTIRNKANCRVSQFSFDSKDVLFQLYQPSLAKLYASEGIYLQGEESFFAFFCFLESWNYDNVYGETLASALHTHYSQLRKSLQQFVTNLSTEEARPDLIQTNLLDNLLLLFIKYTESPTLSEQFQLEYQELMTEQAAEDLALSKSNQELLEILSRYTTIEEPTYFLSLASLLEKQAIYSIQAQTMTAYFLFQGEPAWKAFLQQELAAYLGTRVKLQAIEYVELSQLTLNEADIIISNFPLDHLDLPVFYLSLIPTKNELRRLAELTLHSYF”, the “soluble on expression in E. coli” value was “soluble”.
In the case of “MYTAEQKARIKWACRRGMLELDVVIMPFFEECFDSLTESEQDDFVALLESDDPDLFAWVMGHGRCENLGLAAMVDKIVAHNLSKVRLEHHHHHH”, the “soluble on expression in E. coli” value is reported as “soluble”.
In the case of “MYTHNSSDSIDCNIQSLYRGPQPGRYVRPTGKAVKQVKMEPYSPYSWGDKPYHSLNYYLKQTFGEKIYKLALDGAMTCPNRDGTLGTGGCIFCSGGGSGDFAEPQHASVTEQIEAAKARVSAKIKNGRYIAYFQSYTNTYAPVDYLEALFREAVSHPDIAALSIGTRPDCLPPQVIRLLKEINKEKPVWIELGLQTIHESTAELIRRGYELPCFIDAVRRLKEAGLTVIVHVILGLPGETEDMMLETIRFLANHTPPVDGIKLQLLHVLKGTKLAALYEAAPFPVMTMEEYIDLILKCIRLLPPHIVIHRLSGDGPKKLLIAPEWSGNKRLFLNSLTRALRETGAYQGEWHRPRQP”, the “soluble on expression in E. coli” value is reported as “not soluble”.
For “MYVCKHCGSAMNKDVEIDIVGIKGNTLYVGECKWSNKKIDVRVLDRLRSKVPYLLKDLQVDNLSVVYYLFSRSGFDGLKETEEVKLVELKDLFR”, the “soluble on expression in E. coli” value was “not soluble”.
With “MYVCLCHAITDTQIKNAVSQGDTSLADVKKRLGVADQCGKCARMAVQIIQNQLEIEPKYYEVA” the “soluble on expression in E. coli” value was “soluble”.
